Stoichiometry N data for two substances are collected here from article PMC8121907.

The target of assay [1] is Vip3Bc1 (wild type, full length, unprocessed) (Bacillus thuringiensis). Nature of the assay: cryo-EM structure; single particle cryoEM of undigested Vip3Bc1, C2 symmetry applied, global resolution 3.9 Å.
The target is the same in assay [2]. Nature of the assay: SEC; Superose 6 increase 10/300 GL, 25 mM TrisHCl pH 7.5, 150 mM NaCl; undigested Vip3Bc1 loaded at 1 mg/mL. Background: In gel filtration, larger molecules generally elute earlier.
Assay [3] concerns the target activated Vip3Bc1 (Vip3Bc1^act), trypsin-digested Vip3Bc1 (Bacillus thuringiensis). Nature of the assay: cryo-EM structure; single particle cryoEM of trypsin-digested Vip3Bc1^act, tilted collection, C4 symmetry applied, global resolution 4.8 Å; model built by homology.

Consider “Vip3Bc1 (wild type, full length, unprocessed) (natural protein)”, for which the stoichiometry N in assay [1] and in assay [2] was 4 in each case. In the case of “activated Vip3Bc1 (Vip3Bc1^act), trypsin-digested Vip3Bc1 (complex)”, the stoichiometry N (in general, the number of molecules, sites or subunits per partner or assembly) in assay [3] was 4.
